Patent EP4624486A1 (Guangdong Raynovent Biotech Co., Ltd., dated 2025)
Bridge positions count the residues as written; N and C are the ends. Square brackets hold non-standard residues; d marks the D form. Ends that are not written are not given here. αMeF = C[C@](N)(Cc1ccccc1)C(=O)O; αMeL = CC(C)C[C@](C)(N)C(=O)O; Aib = CC(C)(N)C(=O)O

Tests used:
Experiment in all cases: cell-based or functional assay
GLP-1 receptor (GLP-1R) [1] = target: GLP-1 receptor (GLP-1R) (UniProt P43220)
GCG receptor (GCGR) [2] = target: GCG receptor (GCGR) (UniProt P47871)
GIP receptor (GIPR) [3] = target: GIP receptor (GIPR) (UniProt P48546)
GLP-1 receptor (GLP-1R) [4] = target: GLP-1 receptor (GLP-1R) (UniProt P43220 24-463, limits assumed)
GIP receptor (GIPR) [5] = target: T1, GIP receptor (GIPR) (UniProt P48546 22-466, limits assumed)
T1 sequence (looked up): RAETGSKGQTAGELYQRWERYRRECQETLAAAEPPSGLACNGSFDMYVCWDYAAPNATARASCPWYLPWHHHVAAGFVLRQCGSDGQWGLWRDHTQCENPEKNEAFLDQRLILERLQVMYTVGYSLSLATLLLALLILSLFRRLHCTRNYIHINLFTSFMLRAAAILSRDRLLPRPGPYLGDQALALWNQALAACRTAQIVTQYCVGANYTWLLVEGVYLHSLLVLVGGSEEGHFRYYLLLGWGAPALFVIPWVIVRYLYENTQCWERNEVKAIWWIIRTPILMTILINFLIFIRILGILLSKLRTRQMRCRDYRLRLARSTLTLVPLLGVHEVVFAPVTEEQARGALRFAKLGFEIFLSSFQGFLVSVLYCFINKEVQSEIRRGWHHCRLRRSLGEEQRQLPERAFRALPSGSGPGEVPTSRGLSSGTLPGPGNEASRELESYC

GCG receptor (GCGR) [6] = target: GCG receptor (GCGR) (UniProt P47871 26-477, limits assumed)
Sequence of GCG receptor (GCGR) (UniProt P47871 26-477, limits assumed) (P47871 26-477 limits assumed): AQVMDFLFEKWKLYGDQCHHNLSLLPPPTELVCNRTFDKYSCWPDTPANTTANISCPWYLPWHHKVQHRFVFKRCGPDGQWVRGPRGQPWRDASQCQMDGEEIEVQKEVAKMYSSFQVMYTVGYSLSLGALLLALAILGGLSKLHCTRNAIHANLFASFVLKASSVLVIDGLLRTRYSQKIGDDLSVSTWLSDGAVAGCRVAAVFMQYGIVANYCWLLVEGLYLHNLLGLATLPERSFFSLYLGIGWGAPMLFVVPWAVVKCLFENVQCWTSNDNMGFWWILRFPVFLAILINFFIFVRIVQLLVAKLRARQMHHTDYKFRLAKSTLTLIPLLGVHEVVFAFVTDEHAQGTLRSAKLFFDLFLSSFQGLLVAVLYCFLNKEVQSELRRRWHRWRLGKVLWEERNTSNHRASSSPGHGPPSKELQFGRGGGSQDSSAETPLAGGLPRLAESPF

Sequence of GLP-1 receptor (GLP-1R) (UniProt P43220) (P43220 24-463 limits assumed): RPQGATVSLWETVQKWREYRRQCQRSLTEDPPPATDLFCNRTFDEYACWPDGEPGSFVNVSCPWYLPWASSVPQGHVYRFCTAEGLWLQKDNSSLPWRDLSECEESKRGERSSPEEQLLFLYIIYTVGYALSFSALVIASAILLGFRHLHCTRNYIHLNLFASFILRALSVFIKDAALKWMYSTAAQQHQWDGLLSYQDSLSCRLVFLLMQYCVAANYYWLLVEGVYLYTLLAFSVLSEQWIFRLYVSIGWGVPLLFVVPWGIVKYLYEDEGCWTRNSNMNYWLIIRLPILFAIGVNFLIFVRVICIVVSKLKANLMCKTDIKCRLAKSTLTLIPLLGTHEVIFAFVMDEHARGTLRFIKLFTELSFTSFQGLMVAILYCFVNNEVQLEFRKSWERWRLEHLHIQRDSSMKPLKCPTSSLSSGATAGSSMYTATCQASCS
Sequence of GCG receptor (GCGR) (UniProt P47871) (P47871 26-477 limits assumed): as the sequence (P47871 26-477 limits assumed) above

Row | Molecule | GLP-1 EC50 (nM); cAMP, agonistic activity (GLP-1 receptor (GLP-1R) [1]) [nM] | GCG EC50 (nM); cAMP, agonistic activity (GCG receptor (GCGR) [2]) [nM] | GIP-1 EC50 (nM); cAMP, agonistic activity (GIP receptor (GIPR) [3]) [nM] | GLP-1 EC50 (nM); cAMP, agonistic activity (GLP-1 receptor (GLP-1R) [4]) [nM] | GIP-1 EC50 (nM); cAMP, agonistic activity (GIP receptor (GIPR) [5]) [nM] | GCG EC50 (nM); cAMP, agonistic activity (GCG receptor (GCGR) [6]) [nM]
1 | Human GLP-1 (7-37) (from UniProt P01275 21-180) (ligand) | 0.001 |  |  |  |  | 
2 | LY3437943 (peptide) | 0.014 | 0.031 | 0.001 |  |  | 
3 | Y[Aib]QGTFTSDYSI[αMeL]KDKKAQ[Aib]AFIQYLLEGGPSSGAPPPS-NH2 (bridge 14-17; not fully specified (bridges); also: stapled body (lipidated) structure only in drawing chem0245) [Example 42] |  |  |  | 0.007 | 0.0005 | 0.025
4 | Y[Aib]QGTFTSDYSI[αMeL]KDKKAQ[Aib]AFIEYLLKGGPSSGAPPPS-NH2 (bridge 14-17; not fully specified (bridges); also: stapled body (lipidated) structure only in drawing chem0263) [Example 54] |  |  |  | 0.002 | 0.0004 | 0.02
5 | Y[Aib]QGTFTSDYSI[αMeL]KDKKAQ[Aib]AFIEYLLEGGPSSGAPPPS-NH2 (bridge 14-17; not fully specified (bridges); also: stapled body (lipidated) structure only in drawing chem0251) [Example 45] |  |  |  | 0.005 | 0.0001 | 0.029
6 | Y[Aib]QGT[αMeF]TSDYSI[αMeL]KDKKAQ[Aib]AFIEYLLKGGPSSGAPPPS-NH2 (bridge 14-17; not fully specified (bridges); also: stapled body (lipidated) structure only in drawing chem0260) [Example 51] |  |  |  | 0.001 | 0.0002 | 0.025
7 | Y[Aib]QGTFTSDYSI[αMeL]KDKKAQ[Aib]AFIEYLLKGGPSSGAPPPS-NH2 (linker 14-17 via Ida, Lys, Lys, γGlu, C20 diacid; also: further groups not given here) [Example 41] |  |  |  | 0.003 | 0.0003 | 0.015
8 | Y[Aib]QGTFTSDYSI[αMeL]KDKKAQ[Aib]AFIEYLLEGGPSSGAPPPS-NH2 (linker 14-17 via (2-2-oxoethyl)‑glycine, AEEA, Lys, γGlu, C20 diacid) [Example 52] |  |  |  | 0.003 | 0.0001 | 0.025
